Biological target: T1, His-PTPN23 (UniProt Q9H3S7 1-1636)
T1 construct: PTPN23 cDNA amplified and subcloned to pVL1392 with a His-tag; also called baculovirally purified PTPN23; source: baculovirus, purified (Ni-Sepharose beads, eluted with imidazole)
Test: pull-down; GST-WDR4 bound on glutathione beads incubated with purified PTPN23 or PTPN23 segments; binding buffer 50 mM Tris-HCl pH 7.5, 150 mM NaCl, 1% NP-40; bound proteins by Western blot
Conditions: both partners purified

T1 sequence (Q9H3S7 whole entry): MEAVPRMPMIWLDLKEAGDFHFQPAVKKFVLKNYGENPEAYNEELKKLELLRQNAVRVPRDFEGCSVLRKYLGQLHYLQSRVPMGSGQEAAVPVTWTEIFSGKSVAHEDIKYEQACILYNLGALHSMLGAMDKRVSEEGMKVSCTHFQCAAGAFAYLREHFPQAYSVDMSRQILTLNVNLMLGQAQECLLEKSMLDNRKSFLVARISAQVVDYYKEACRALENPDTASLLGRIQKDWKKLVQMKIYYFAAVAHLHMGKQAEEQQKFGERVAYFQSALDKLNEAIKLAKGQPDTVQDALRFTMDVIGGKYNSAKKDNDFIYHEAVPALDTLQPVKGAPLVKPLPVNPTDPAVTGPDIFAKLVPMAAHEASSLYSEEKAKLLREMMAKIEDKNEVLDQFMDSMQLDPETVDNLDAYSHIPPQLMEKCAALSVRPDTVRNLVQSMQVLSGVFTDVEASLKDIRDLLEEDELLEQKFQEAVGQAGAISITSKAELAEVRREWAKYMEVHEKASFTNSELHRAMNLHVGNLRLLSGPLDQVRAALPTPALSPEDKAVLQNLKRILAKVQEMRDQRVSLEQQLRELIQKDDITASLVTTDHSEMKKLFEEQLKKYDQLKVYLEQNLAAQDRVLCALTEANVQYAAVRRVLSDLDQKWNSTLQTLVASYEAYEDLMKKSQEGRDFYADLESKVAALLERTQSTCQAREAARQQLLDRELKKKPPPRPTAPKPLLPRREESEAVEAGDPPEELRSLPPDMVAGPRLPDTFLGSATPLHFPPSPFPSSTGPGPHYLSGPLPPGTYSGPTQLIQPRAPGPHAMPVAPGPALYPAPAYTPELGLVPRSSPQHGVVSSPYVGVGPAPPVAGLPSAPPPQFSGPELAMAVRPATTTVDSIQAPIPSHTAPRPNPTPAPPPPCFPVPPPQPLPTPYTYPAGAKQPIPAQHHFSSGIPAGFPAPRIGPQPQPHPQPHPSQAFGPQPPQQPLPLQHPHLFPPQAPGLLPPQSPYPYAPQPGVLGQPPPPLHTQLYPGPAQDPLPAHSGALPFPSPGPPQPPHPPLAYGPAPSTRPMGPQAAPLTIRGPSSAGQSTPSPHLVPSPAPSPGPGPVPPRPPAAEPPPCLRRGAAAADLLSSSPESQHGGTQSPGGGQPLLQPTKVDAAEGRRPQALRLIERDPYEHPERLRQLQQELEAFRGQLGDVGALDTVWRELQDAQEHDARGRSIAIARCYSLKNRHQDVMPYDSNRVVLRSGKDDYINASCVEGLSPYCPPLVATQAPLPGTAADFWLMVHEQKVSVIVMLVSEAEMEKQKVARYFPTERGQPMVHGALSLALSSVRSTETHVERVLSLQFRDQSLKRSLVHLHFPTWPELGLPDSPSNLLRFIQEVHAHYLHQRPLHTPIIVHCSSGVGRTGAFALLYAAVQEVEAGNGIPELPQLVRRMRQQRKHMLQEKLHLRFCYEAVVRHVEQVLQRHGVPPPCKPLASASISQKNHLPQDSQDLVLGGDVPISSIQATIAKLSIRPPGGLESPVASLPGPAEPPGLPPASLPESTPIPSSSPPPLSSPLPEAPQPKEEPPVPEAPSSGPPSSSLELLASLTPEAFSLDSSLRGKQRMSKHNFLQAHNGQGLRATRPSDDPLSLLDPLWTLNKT

binding result: binds
B1: GST-WDR4 (natural protein, UniProt P57081 1-412, looked up)
chain: MAGSVGLALCGQTLVVRGGSRFLATSIASSDDDSLFIYDCSAAEKKSQENKGEDAPLDQGSGAILASTFSKSGSYFALTDDSKRLILFRTKPWQCLSVRTVARRCTALTFIASEEKVLVADKSGDVYSFSVLEPHGCGRLELGHLSMLLDVAVSPDDRFILTADRDEKIRVSWAAAPHSIESFCLGHTEFVSRISVVPTQPGLLLSSSGDGTLRLWEYRSGRQLHCCHLASLQELVDPQAPQKFAASRIAFWCQENCVALLCDGTPVVYIFQLDARRQQLVYRQQLAFQHQVWDVAFEETQGLWVLQDCQEAPLVLYRPVGDQWQSVPESTVLKKVSGVLRGNWAMLEGSAGADASFSSLYKATFDNVTSYLKKKEERLQQQLEKKQRRRSPPPGPDGHAKKMRPGEATLSC
notes: WDR4 cDNA amplified by PCR and cloned to pGEX-4T-1; pGEX-4T-1 would place GST at the N-terminus (surmised from the vector); also called bacterially purified GST-WDR4
